In a protein production outcome set (Wang et al. 2014) one finds protein production data, which are given here for 19 sequences.

This data set can be described thus: label from the status in PepcDB records.

As for “MLTNGMKYHEKLVDESSRNILFIGQDRISGLYDTIGILSIDRKNKKLKIIMIPRDLYIDYSSRVKHYLEENGRLNDPDFYKINAAHLIGPYMKYEGKFGAYSMNFLAELIKEIFDIEVHDYVRVNTEGFVQIVDLFGGVDINVPYDMHYDDIYQDLHIHINKGWNHLDGKKAEGFVRYRQSNDEMGNITHSIGDYERKKNQINFIKAFIEQHGTMSNIDKLPSLISTLNKYMKHSIGVGDVLTTYIGYAKDVVLYKYPIETYTVTGKDKYMNQRYYIVIENDNKTSKVVDLEHHHHHH”, the protein production entry is given as “failed”.

For the sequence “MLTPLQIYFPIGVVLLVAVVLAFTMLGLANVLGPRRPSLVKQTPFECGSEPIGSARERFGVKFYVVALLFIVFDIEAIFLYPWAVLLLPDGQGYPGLGWPGFISMGIFVFTLVAGLVYVWKKGVLDWAD”, the protein production entry is reported as “failed”.

As to “MLTQGNFDVLPVGDGAKRAQTVQPTVKLRIETIGVPRISDENGRNLTPVGSRNRVIPVILALSPRMTVGRRWLEALLWSDRGPDQASGSLRQALSSIRRQLGDARDILCANRTDIWMTSKDVTIDLLDDQQGVLQRLRAGRDFLEGIDILSEGFEDWLRQERASLLQMAEVELPARALPARLHATEAERPLSWTQEPPRFFLDQDLGLESDKLERFLTDAISTQLTQTVKSHFRADVRALDGTLTPVIVTPGARFAIRVTRINKAFAVLARMTEEPAGRLFWSRQLFIDSRETESMMDTAAALATEASEAMGARSFVASPAQQANVLAAEALADVFSFDPDRLRKAIRTLGRANDIDPHAPRPALKALALAFLALETRNTDRDHLIGEVTDLIRQSRALDSRNALALSFLADVQDLVFEDPQTALSYAKSALRSNPGIGYAYASLGALELRRGAAEAALIAASRAQRQLANSSLEVFSLMRLCVANLTAKDFDAAEQAAQRAAELAPTSQPPLRHLYALRLRRKDYAAARQTLRALRRLDPLFSMQYLRENPEFPAATIRTMQLHKLMDVELG”, the protein production entry was “failed”.

As for “MLTQYRQAQEDILRGRVKVRVVGQDKGGGVVMGEGVEIAPGARIEGPVLIGGACHIATGAVVGPFTVLGPYTRVEEGATVRRSVLWDNVYTGEGANVRGLEHHHHHH”, the protein production result was “not failed”.

“MLTTQGVPEFCYITIIGLILFMIFKEVLSQSKFWRKDLESSSNMVILPLLISFSAIVAYKIAEIL”: the protein production entry is reported as “failed”.

Take “MLVAAACFTIMNVLIKEASAKFALGSGELVFWRMLFSTVALGAAAVLRRDTFRTPHWKNHLNRSMVGTGAMLLLFYAVTHLPLATGVTLSYTSSIFLAVFSFLILKERISVYTQAVLLLGFAGVVLLLNPSFRSGQETAALAGLAGGAMSGWAYLKVRELSLAGEPGWRVVFYLSVTGVAMSSVWATLTGWHTLSFPSAVYLSCIGVSALIAQLSMTRAYKVGDKFTVASLSYMTVVFSALSAAFFLGEELFWQEILGMCIIILSGILSSIRPTAFKQRLQSLFRQR”: the protein production result is reported as “failed”.

Consider “MLVKFWGVRGSLPAPLTPAQVQSKIAAVVQRITLKDIESQDSRERFLASLPKWLFGTIGSNTACVEVETDDGGHLIFDAGTGIRELGIDLMKRPDYGKNTTYHLFFSHFHWDHIQGLPFFNPAYDPRNKIIVYSTRKKAKEFLEDQMKYPYFPISMLGEDGFGASFEFKYIEPDQKYVEIGDTKIGWHRVRHPGGCTAYSVIEKGKKIIYSTDTELRPRDFERNEQNAEFYTDAEMLIIDAQYTLTDSILKEGWGHSTFSVAIDFAAGWNIKSIALFHHEPTYHDKKVFSLKQTADWYRDCSRAPDIKIFIAQEGRSFLI”, for which the protein production entry is reported as “failed”.

On to “MLVLILSSGVSVAIATETNDLSIAAVLISPSDVVFAKEANTIVVYGITNSGTENLTNITVDVYASDVSGTVPVNTETISSLAGGGTTTIFITDPTIRDLQGSTVTYTAVIDPDNLIPETNEANNNRSSAAVPVRYNGYKGKRYWEGASDITTKHTYDFNGDVSSSSQPSTSYRSQGAWSNGRTETWGGSVPNPDLPSGSTIEQALLYVAYNWDETPGGYPWWNVSFNNVIIDYGNISTGNGILYTDMSNFGLYADYEYGLVVYDVTNLYNSTDYNGLKMYPYNSTFADLTALYPSTLVIIYQNPNMTRKQIFINEECDELGVSESTYGTTPEEATAYAPFTGMSIDVSNVSNATLYSFAGSAGPDEGNLLFNGNTVATNAWHGDAYTASASVFDVKNYINSTGNEAGIQGTVSGGMDVLQQILVVEYVESVPSALDANLTANVTSGTAPLTVQFTDLSEGNVTNWLWDFGDNTNSTSQNVSHTYNSPGTYTVNLTVTGPEGSDSEVKTDFITVSDSNVSAPVAAFTATPLVGTAPLQVAFTDQSTNSPTEWKWEYNNGSGWVEFSNETNASYSFATAVPYDIQLTVSNSGGSDDETKLHYISVGNVREPLNTVQSGTVSGDLYISSPTTWPATEVNQTFTLPAAAVGNIQWAKLYVNTYSGSAANTYALSSTVKLDGDGDSTYESTLGTETMDIASLTNGASFPLNDHVNKVYSDYEAQYDVTSLISAANPAINVKSEAISGKNFDGRIKGVTLVVAYNNTSSTDQTYYWVNHGGDWSSPANGNTIFDTSGLSSGWVSAESKIRYFSYSDANYTFNGVAKTGSTPSNYSGLNTWDVTDNITAGQSSTLAYSKGSGSYKTTLATLKVKYETPGFSNKVTLGDTSPVSPTLASLNGRLYLAWKGDGNNNLNVMYSADNGMTFGNKYTSSETSPESPALCVHNNSLYIAWKGNGSNYLNVAQVTMNGDNITDFSNKVTLGDTSPVSPALASLNGRLYLAWKGDGNNNLNVMYSADNGMTFGNKYTSSETSPESPALCVHNNSLYIAWKGNGNNYLNVAQVTMNGDNITDFSNKVTLGDTSPVSPALASLNGRLYLAWKGDGNNNLNVMYSADNGMTFGNKYTSPETSPESPALCVHNNSLYIAWKGDGNNNLNVAQVI”, for which the protein production result is listed as “failed”.

For “MLVNRIISATVAGLVAVVIGFASSVALIYQTVINLGGDASLASSWILTLGLSMGITSIALSFYYRVPILIAWSTPGAALLIANTQNFNLNEAIAGFMFSALLIFLCGITGWFEKLINKLPFQLASAMLGGILVNFGIDVFNQMNKAPLLVIVMFFTYLVCRQLMPKFTMLFVLIISVVLAWQLKLMTFTAFSWQLSEFTYISPEFNMSAVLGIGIPLFLVTMAAQNLPGIAVLKAHNYKAPVSSILSVTGFVNMLAAPFGGYAINLAAITAAICMTKDVDKDPKKRYWAGISGGGFYILMAISAGYLMQAFASLPNALIYSLAGMALFTTINSSIQQALSDDKMSEAAIITFLVTASNLSLWDISSVLWGLIAGSITLMTQSLLNRSNDKLC”, the protein production entry is on record as “failed”.

As to “MLVSEMHGEVEAVKVGTEVQGRVLHWVYLYYYRNLLFDAGCPNTAQEVFEHFKGREIKAVLITHYHEDHIGAVNLFKEITDVYVPEESLEILRNPPDIPKYRKIGWGQPEKIEGVKVAKEVMKFDDVEVRMIKTPGHSFDHVSYLVDDKLFCGDLVINTAQMVCMREENLLKTIESIEKVLKYDFNYAYTGVGVASRDEVVEYLNYLKGLKEKAEMLYAEGKTIDEIVAACFPNPSQKAILMEFVSEKEWARENMVKSLLGLPRE”, the protein production result is recorded as “failed”.

As for “MLVSPDTPRFLAARLLLGAWLACGAGAQAQTLLDTSAAIGVQNTLNQIQPGVTQVPGSLSVQFDACKMAPESCKDGQPIGAAPAPATSGQSAQNAQSAQPAPSQVAPAAPTTPTQTTPTPAGEAPATRPVPTVVPLTAEQQQLLQAAQAQFAAGRYPQARNEFEALIVRNYNNPEPHFGLGLALYQLGDLRGATFEFGQFMQFAPQRYEGPYNLGVIATREGRYPDALRLYGEALTLAQSAPPAARQVLLRALATEQGRVKDYVALAATYADLRAADPENVEYIFRHAQALYQAGQVADALPVTYAVLERKPSSLQAALLLADLYVAQGLPDRAVRELSAAAARVLTGTDRATLLLRQSDLLLAQNNLRGALNAASEARQEDRRLPAAIIREAELLAQFGQRPAAVRAYRDALALTPKSAPIQAALAALYLEGNQYPEAAQAAQQALKLTPDASTRARALYVQGVVAYRQGQYTQARTALNSSVLAVPDADSLLWLGLSYYALKDYASAVPVLSESVRLRPTPAARQNLAAALLATARYAEAEALLRGLVTDEVKNAEGWYLLGLSQRAQQRPDDARQSFKTAAGLGSARAKDALK”, the protein production result is given as “failed”.

As for “MLVTVMIPTYNQKDYVGSAIESALAQTYADLEIVVADDASPDPGVAKVLERYRNHPKVRLYRNAQNLGRVANYRKTLYERARGEWVINLDGDDYLVDPCFVEDAVGVVKKHPDIVAVLGGRKVLQASGTHKVQQANVCLSGRVAPRDVFSGILDGTLFPYHNATLYSRTHALAIGFYEQDIVSSDLESFLRLFARGAVGVLPRIVGVWREHSGNTSGTMAFSDYLANIQVFESVMHTAEEPDIAVKSSFLKSWSSRYAYSKGKDYAYRLLKDSDSPSLCFGYLKRLSKVSSVAALRILIQPKVLFNLLARALPSQISRCFR”, the protein production result was “failed”.

In the case of “MLWFAMSSVLRVRPTKIELIRLKRRKALAEKVHRILRERLTILVNEFLVRVREAYSLRRTVNDLVFNLYNDSVLLNSVYGEYGFQYFRSITVEGLRAVIGVENIMGVKTRSAVVKHSKTIEYVYPGFDSFRDGARKLIEAIIELGRAEQALIALGREIERTKRKVNALKYIIIPRLANTIRYLNMKFEEREREEKARLKRIKSVLEKRR”, the protein production result was “failed”.

In the case of “MLWFGQPGPGGWNRKCLRPFTLPRGQHPQPSYGFPQVNEVVFSPGESHCATCSEDGSVRVWALASMELVIQFQVLNQSCLCLAWSPPCCGRPEQQRLAAGYGDGSLRIFSVSRTAMELKMHPHPVALTTVAFSTDGQTVLSGDKDGLVAVSHPCTGTTFRVLSDHQGAPISTICVTCKETQGHLPPSLAAFCPWDGALLMYVGPGVYKEVIIYNLCQKQVVEKIPLPFFAMSLSLSPGTHLLAVGFAECMLRLVDCAMGTAQDFAGHDNAVHLCRFTPSARLLFTAARNEILVWEVPGL”, the protein production entry is reported as “failed”.

Take “MLWSFIAVCFSAWLYVDASYRGPAWRRWVFKPVTLILLLLLAWQAPMFNAISYLVLAGLCASLLGDALTLLPRQRVMYAVGAFFLSHLLYTIWFASQLTLSFFWPLPLVLLVFGALLMAVIWSRLEEMKMPVLTFIGMTLVMVWLAGELWFARPTNTALSGFAGAALLLLSNAVWLVSHYRRRFRADNAIAAAFYFAGHFLIVRALYL”: the protein production entry is recorded as “failed”.

As for “MLYFIPTPIGNLSDISFRALELLKTCDLVFCEDTRVSKSLISLLNTKFHTDIHISKFIALHSHNEKEVLASIDLKIFEKNVAYLSDAGMPGISDPGKALVEFAQENNITYEILPGA”, the protein production result was “not failed”.

As to “MLYHKLGYVQSAQQTLREVMTIWQAWFKALKAYRKNPARFTGRPRMPRYLHKSQRHTFYVTNQNAQIVRKDEQDKGYLVIKKLGIKIKLASADIKKIGRVAFKPVANGYKVIVPYKTKQKIKYLPDNGKYLGIDPGIDNAFACVSNTGARPLLINGRGIKSVNQYYNKKRSELKRLQAKYHQLEKLISTKQGLKPVYQETKAMKRITAWRNDKIRQFAHKASKRIVDYALSCDANTIVIGKNKSWKRSFEMGKRNNQNFIGIPHQVMIDMIKYKANLAGITVIQTNESYTSQISALDHEQPCWNNGNKSRKKQRKSPVNRRIKRGLFKADNGTLINADINGALQIIKKVFPNFSLDDGIVGAVLRPFKWSPTI”, the protein production entry was “failed”.

Take “MLYIFLLPIIGLALAFIINKIFPRAQFRGYDVLPFFFIAACSLITLHINRPSFLPYGFLLYFILVIVVSLSDAIRNKNISLGKTIRKLWDYLAACTCFWYLGLLIMMFL”: the protein production entry was “failed”.

For the sequence “MMAKLVVCIIDGMADPPPPAGGVTPLAAAHTPHCDTLARHSVAGLCHVIQPEAVPGSEAGLSALLCCEAAASIARGPVEALAQGDPVAPHETVWRLNLVSLGPRGNYYNPAPLLDAATETAARKMLDRALGTQGYSLLGGKGFRHLCAGTEPPVLRDGPQDVCGMTPDTGQADLNSYCPRLARAMTEANVLFRRSRMDLAVWPWGAGTMPDLPGFAETTGQTGALAGGVPLARGLALALGMTAPSIAGATGGIDTDLGAKTRAAIALAAGHDVVYLHVEAPDLHAHALDRVAKRRAIERIDAEVVGPLHMALPDATLLITCDHATDCATGRHMAIPVPFILHKPDGPQDGIATFSEAASARTGIRIDSAATLVRLALADLEHHHHHH”, the protein production entry is “not failed”.
